PMC2171822

Molecular target: tetramethylrhodamine-labeled microtubule (tubulin purified from bovine brain) (bovine) (UniProt Q6B856)
Experiment: fluorescence microscopy of kinesin-coated beads binding to a single microtubule

Substance: native kinesin purified from bovine brain (complex)
- average binding frequency: 0.018 μm^−1 s^−1
- koff: 0.004 s⁻¹
